Source: the DeepSol protein solubility set

Experiment: soluble on expression in E. coli; label from the status in PepcDB or PDB records

Row | Sequence | soluble on expression in E. coli
1 | MSLYQRCFDNASETLFVAGKTPRLSRFAFSDDPKWESGHHVHDNETELIYVKKGVARFTIDSSLYVAHADDIVVIERGRLHAVASDVNDPATTCTCALYGFQFQGAEENQLLQPHSCPVIAAGQGKEVIKTLFNELSVILPQSKNSQTSSLWDAFAYTLAILYYENFKNAYRSEQGYIKKDVLIKDILFYLNNNYREKITLEQLSKKFRASVSYICHEFTKEYRISPINYVIQRRMTEAKWSLTNTELSQAEISWRVGYENVDHFAKLFLRHVGCSPSDYRRQFKNCFAEQEILSEFPQPVSLVGEGGSHHHHHH | soluble
2 | MSLYQSIVFIARNVVNSITRILHDHPTNSSLITQTYFITPNHSGKNISFHLFHDFKYCSADTRHYSQLIIFPVKENSRPTQVSRPLGGRPHESVFLPKFTRTQNSYCLTRLDRMGFPPPRKASTIMHFFQDDRTVMCSPKDGIPVSSFHIMICFLERRKGN | soluble
3 | MSLYSIIDIETTGGHASGNRIIEIAIYKFDGEKITDTYQTLINPERRIPVFITSLTGIDTEMVADAPVFADVAREITDFTRDSVFVAHNVNFDYTFVKKELQALNMPYNLPKLCTVRLSRKIFPGLPSYSLGNLCGSLGIDVQNRHRAAGDAEATVRLLNKLLLNDTEGFIPKSLKKNSKETLLPANLPREQFDALPETFGVYYFHDHKGKVIYVGKANNIKKRVISHFSGKQQNQKSQQFMQAIYGLSYEVCGSELLSLLLESHEIKKYFPVYNSIQKFGEKNYGIYQYEDNAGFIRLSIAKVNKLQHPLISFRYISEARTFLLEKVRTFQLCHRRSGLQTAPCSDVELCTACKGTTRSTAYNVKMKRALATFEHPDHSYIIKQPGRTRDEYAVIVVEAGRYLGYAYIPADLSGSTIEELKPFVNRHPDNRDIQKILAMHQRKSMVIAVEGHHHHHH | not soluble
4 | MSLYTVLVADDKEVFRRKVKRMPYFQDHKEKFAIRYEAQNGLEALEILRSHDVDMVLTDIRMPFIDGIELLKHVNAENLCKCVILLSEFAEFNYAKAGILNGAFDYVLKPVDDEKIQETFDRAYNYLTTINAAVNAQTQRIETLARLMLAGDRMNALAYAKHIGAGLQAHGAITGERIVQANDTLAQLNKYILQKRPFLHYYLPFDELCCLDAKKTTPGKISDAFNACVSTVMDAIEPFCVQSTNELVGRTCQLVLEKLDSKVSLHGIADNLYVNPKYLGALFKKETGRSFVDYVTFARMERAKMLLRNPTLKVYEVAAQLGYDDVDYFSKVFKKLTAESPSIYREMRKEGHHHHHH | soluble
5 | MSMEFDAVIIGGGVSGCATFYTLSEYSSLKRVAIVEKCSKLAQISSSAKANSQTIHDGSIETNYTPEKAKKVRLSAYKTRQYALNKGLQNEVIFETQKMAIGVGDEECEFMKKRYESFKEIFVGLEEFDKQKIKELEPNVILGANGIDRHENIIGHGYRKDWSTMNFAKLSENFVEEALKLKPNNQVFLNFKVKKIEKRNDTYAVISEDAEEVYAKFVLVNAGSYALPLAQSMGYGLDLGCLPVAGSFYFVPDLLRGKVYTVQNPKLPFAAVHGDPDAVIKGKTRIGPTALTMPKLERNKCWLKGISLELLKMDLNKDVFKIAFDLMSDKEIRNYVFKNMVFELPIIGKRKFLKDAQKIIPSLSLEDLEYAHGFGEVRPQVLDRTKRKLELGEKKICTHKGITFNMTPSPGATSCLQNALVDSQEIAAYLGESFELERFYKDLSPEELENLEHHHHHH | soluble
6 | MSMSVILRKSLIEVLNKKNEKKKDVAREISTSQQSLSDWTSQNNVKPVTIENALRLSDHFRDSTFTMEVIHQFFGMFKTCDGDVYRKDPSSLDRLQKIESNERKALKHDIERIVLKNPEYLSEQDISKIVAYANEYLDEVIVEITLLSSLCDLASIDIRYLSEQRFPYWEQLGYMRKENTNGTRSY | not soluble
7 | MSMTVTTYLPIEAIKQQFCQSLDEQNTLILSAPPGAGKSTCLPLWLLTLPSLANKKIYLLQPRRLAVKNIATFLAAQLKEKVGETVGYRLRNDSKTSTSTRLEVITEGILTQIIQKDAELLGTALVVFDEFHERSLQGDLAFALTREVQTELRDDLKILLMSA | not soluble
8 | MSNCEIIAVHGGACAKFDASLAEDCRFACGTGTVENALTDLERIEKFNCGFGSHLTIDQEVECEASYMSSKNLSFGAVGAISNVFHPSRVARHLAHSNWWKQRRLLHPLILVGRGAEKYAVKNDFPTCTPEELVSKAAKESFEKYLHRMLHPYDTHDTVGAISINTNTMNSESGTSSGGIVLKHSGRLGHSCVYGSGTWSERRQYEEPFDQVSERTISICSTGHGESLVKADFCRGIATRVLDDEEGIMYSEIIREFIHEKMEHGSRYGGIALIADKFKDRMSLEFLIFHNCRYLPAAVRCRDNQIRVFESQFDPDQCTTDPKCVIESFIM | not soluble
9 | MSNDQSAMNELHWLIDMVQTIEVGLVVLDRDYNIQLWNGFMENHSGVSPNSIKGQNLFSRFPDLPATWLKQKMESVFMLKNRAFISWEQRPYVFQFKNYRPITGRADFMYQNVTLLPLASLTGKITHISVIVYDVTDIAVNKLEHHHHHH | soluble
10 | MSNEEARSAGDLRNTGLSLRHDRTWDYELDRIVDEVERKDAEKVGLQFPEGLKRRGPAVADDLRARLDDTRIMLSGQPCYGACDLDTYLMRRTDVFVHFGHSPMKESDSIIYVPLFSNVDVEPIMQEARDELHDGDVGLVTTAQHMNQFEEMRTWLEERGYTVHTRRGDDRLTNEGQVLGCNYASADIDADQVLYVGGGKFHPLGLAMEHPEKNVVIADPVNNAVSIADAEQFLKERYASVHKAMDAEQWGVIFCTKIGQGRFDQAEEIVENNDNAYLITMDEVTPDRLMNFDMDAFVNTGCPRITTDDGPQFHKPMLTPGEYEIAVGNKPLEDLSFDTFHGTWLEHHHHHH | not soluble
11 | MSNEIYTAITIGPICKTLDKARSVKSFWTASYLFSWIMRELLERLPKEERPEGSFEVLSPHRDGKDVPEETSKKVGLFPDRLFAKGELEEEKLQEIKGKIFIELAEKFKNAFQDEKDGITRKIDTESDPKRKRELEEIQSRYSNAALKGEDIRKYLENYLSISCITVELSSDCNILEQLNSYLDTQELFNKASIQTDEDYMELFIEAPNNPFLKAYSQDRAFPSTSEIAVSGWEQDPPKDENGEVEYTQLTSKPGFRNCYKYLAVIKADGDGFGTYIKELKVDEEKEIKENGEKENELSRFTKSFFEFSVEVANELIQKTKAIPVYIGGDDLFLFAPVLEGNVEKDVFNLIKEIDDLFIQKEIGEGLSMSYGVSIFYYKSPMSEAIDIADSMLRKAKEEKEEKEKKKDTVAISIQKHSGQKIEFLLPCKHSTDKCKQETGLYKKATELIRAFKEDDSMLNSLIYWIEDMYETIFTDEVTLYQERINAVFDNFFDEEIHKENEVFFDLLKKFIHSMHHSEDTPRKLKDKKKLLHGILRYCQFVTAKKEK | not soluble
12 | MSNENKTIHDFELNLICDFFSNMERQGPGSPEVTLKALSFIDNLTEKSLIADIGCGTGGQTMVLAGHVTGQVTGLDFLSGFIDIFNRNARQSGLQNRVTGIVGSMDDLPFRNEELDLIWSEGAIYNIGFERGLNEWRKYLKKGGYLAVSECSWFTDERPAEINDFWMDAYPEIDTIPNQVAKIHKAGYLPVATFILPENCWTDHYFTPKVAAQKIFLTKYAGNKIAEEFSMLQSIEEELYHKYKEYYGYTFFIAKKIRLLEHHHHHH | soluble
13 | MSNFWVIALNKNWATLDQVKEAYYYDDVTKEELKEGVDNNLITPEQYQEIVGEAYTSVTLSTELEHHHHHH | not soluble
14 | MSNIFLSLEPKILWSHFYRLTQIPRPSGHEEAVRTYVADVAKRCGLEWLVDEAGNIIVRKPASAGMERRRGVILQAHLDMVPQKNAGTAHDFTKDPIDAVIDGEWVHARGTTLGADNGIGVAAALAVLESDDLRHGPLEALFTVNEEAGMTGALGLKPGVLRGDILLNLDSEDEGELFIGCAGGLDGTMRFDYSCEPLPPGYSGIEIRVSGLRGGHSGMDIDLGRGNANKIMNRLLQMGREHHGLLLASIDGGSLRNAIPRESVALVAVPSAQKVAFLDELHSLASAIGLELNGVDPELRVEAADAALPVGMIDDTVAQRLFDAVAACPNGVHRMSEAMAGLVETSNNLARVHSDGRAVSVECLLRSASVEGMRELADAVAGIAERAGTVAAFENGYPGWKPNPASPILKCMVKVYRDRFGKTPEIRAVHAGLECGIIGANNPQLDMISFGPTIRHPHSPDEKVECSSVLKFWELLVATLEEVPEPLEHHHHHH | not soluble
15 | MSNIIARFHKIQVQDGVKVWYREAGAAGNPTILLLHGFPTSSNMFRNLIPLLAGQFHIIAPDLPGFGFTETPENYKFSFDSLCESIGYLLDTLSIEKFAMYIFDYGSPVGFRLALKFPSRITGIVTQNGNAYEEGLDDRFWGPLKEYWKSYQSDPVFVKSLIPYLEDPANVICQYHDGVPAIESVDPAAYTLDIALIQRTGQTDIQLRLFFDYQNNIKLYPAFQKFLRDSKIPVLVAWGANDTIFSVAGAEAYRKDVDNLKVVYYDTGHFALETHVVAIAEEIISMFAEN | soluble
16 | MSNRVVIDHIGASGHGISNISHDSLSVPFTLPGEVAIVALRGKYGKLIALEKKSSERIDAICQHFENCGGCVLQHWHADAYRSWKRQLVIDALKRYGIDVFVSPLIEGGYQNRRRITLTALATQKGHIVGFNRYLSHDVIALEECPVTRLEIMSKLNSIKLLCALVGNHTKRFQVTVTSVENGLDVAFNGCVVRDEHIRQQMIHTALAYGMTRLSVEGEILVEREKPLVYFGDVCVEFPAGGFLQATFEAENIMGNIILAYLEKAKNAVDLFSGLGTFTLRMAKKMNVHAVENNETALANLDRAARFATGLKTITCERRDLFRRPLSAKELSCFECVVFDPPRAGAQEQVRELAKTTIPRVVTISCNPVTFARDLSLLVAGGYTIEKIIPIDQFLWSPHVEIVALLSKRKIKANWKL | not soluble
17 | MSNTEERCDLSSSRDCPERHEHLLQRVTARAAEIGGGITVSRLMPSRQRRMIGAWCFLDHAGPAEFEPGGGLAVGPHPHIGLQTFTWMIQGEALHRDSLGNVQVIRPGQVNLMTAGHGIAHTEESLPDERHAHAAQLWIALPYEQRDIAPAFDHHPDLPRWQEQGVTFTLLAGALAGRQAPCRLYSPLLGADLACHDASTLQLTLDPHFEYGLLPLEGGLEVGGEHFAVNELAYLGDGRDGLQLQLDPGARVLLLGGAPFGAEIFMWWNFVGHSKGEIARAQKAWEEGDARFGRLDALEGPRLSAPPIPWKIDAE | not soluble
18 | MSNYWLNIYKPRGISSAQLVSIVKKILGKTKIGHAGTLDVEAEGILPFAVGEATKLIHLLVDARKTYIFTVKFGMQTNSGDCAGKVIATKDCIPSQEEAYAVCSKFIGNVTQIPPAFSALKVNGVRAYKLAREGKKVELKPRNITIYDLKCLNFDEKNATATYYTECSKGTYIRTLAEDLALSLQSLGFVIELRRTQVGIFKEENAIRIKSPDEITKNALEENSIKIEAILDDILVLDATDSQAQQIKYGQKCLFNYEKDFRHLAKFAYREEFKGNTERNTTAYTLVREDASTGLTYKLPLEVEFGKMSVDLLWVRYKGTLLAIGSLNKSCFNSLRVFNLTQDFF | not soluble
19 | MSPFMEKTLLLLGVLCCIQVTTALMCYDCNSEFDPRCGDPFEPYSIGEVNCSKQEPLEHLKDKYKPTLCRKTVQKIYGKTRIVRGCGYIPDENTDNKCVRRSGTHDVAAIYCSCTKDLCNGANSPAGQWMMLPLIVAAGLALLLNSRHTIRFQSS | not soluble
